Source: publication PMC11570498, “A promiscuous mechanism to phase separate eukaryotic carbon fixation in the green lineage” (Nature Plants, 2024)

Tests used:
[1] = molecular target: T1, CsLinker α3 fragment (residues 142–207) (Chlorella sorokiniana UTEX1230); experiment: SPR; Rubisco immobilised as bait, fragments as analyte (prey); Biacore T100/T200, 25 °C; analyte injected at 15 μl/min for 30 s, 360 s dissociation; fit of y = Bmax·x/(KD + x); apparent KD; triplicate; settings: both partners purified
T1 construct: CsLinker (CSI2_123000012064), Chlorella sorokiniana UTEX1230, residues 142–207: one whole repeat centred on predicted α-helix 3; residues numbered by their position in the full-length CsLinker; From the plasmid His-mEGFP-TEV-α3-TEV-MBP-His; also called single helix α3 fragment; source: E. coli BL21 (DE3), purified (IMAC, TEV cleavage, second IMAC, SEC); not shown: His6, N-terminal, cleaved; …

[2] = molecular target: T2, CsLinker α3–α4 fragment (residues 142–272) (Chlorella sorokiniana UTEX1230); experiment: as above; settings: both partners purified
T2 construct: CsLinker (CSI2_123000012064), Chlorella sorokiniana UTEX1230, residues 142–272: two repeats with predicted α-helices 3 and 4; residues numbered by their position in the full-length CsLinker; From the plasmid His-mEGFP-TEV-α3–α4-TEV-MBP-His; also called α3–α4 double repeat fragment; source: E. coli BL21 (DE3), purified (IMAC, TEV cleavage, second IMAC, SEC); not shown: His6, N-terminal, cleaved; …

B1: Ulva mutabilis Rubisco (UmRubisco) (complex)
chain 1: GVKDYRLTYYTPDYQVKDTDILAAFRMTPQPGVPAEEAGAAVAAESSTGTWTTVWTDGLTSLDRYKGRCYDIEPLGEDDQYIAYIAYPLDLFEEGSVTNLFTSIVGNVFGFKALRALRLEDLRIPPAYVKTFQGPPHGIQVERDKLNKYGRGLLGCTIKPKLGLSAKNYGRAVYECLRGGLDFTKDDENVNSQPFMRWRDRFLFVAEAIYKSQSETGEVKGHYLNATAGTCEEMMERGQFAKDLGVPIVMHDYITGGFTANTTLAHFCRASGLLLHIHRAMHAVIDRQRNHGIHFRVLAKILRMSGGDHLHSGTVVGKLEGEREITLGFVDLMRDDYIEKDRSRGIYFTQDWVSLPGTMPVASGGIHVWHMPALVEIFGDDACLQFGGGTLGHPWGNAPGAAANRVALEACTQARNEGRDLASEGGDVIRAA
chain 2: MRVWTPHNNKMFETFSFLPPLSHGEIARQVDYIIANGWTSCLEFADSDCAYVQDKANIRFGNSASCNYYDNRYWTMWKLPMFGCTNPNEVLGEIDSCKRAFPESYIRLVAFDNIAQCQTIGFLVNRPPRSGDFQSPENRSVA
- Kd [1]: 162 µM
- Kd [2]: 1.56 µM
